# Results published in publication PMC10899635, “Q586B2 is a crucial virulence factor during the early stages of Trypanosoma brucei infection that is conserved amongst trypanosomatids” (Nature Communications, 2024).
# T1: recombinant Q586B2 protein (Trypanosoma brucei brucei)
# T1 chain: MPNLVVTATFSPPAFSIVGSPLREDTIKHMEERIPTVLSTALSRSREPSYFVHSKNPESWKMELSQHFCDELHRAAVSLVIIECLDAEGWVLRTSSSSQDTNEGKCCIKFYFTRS
# B1: Nb53 (VHH)
# VHH: QVQLQESGGGSVQAGGSLRLSCSASGYTYSSHCTAWFRQAPGKEREALAAINSRSGTTYYADSVKGRFTISQDNTKNTAYLQMNSLKPEDTATYFCAALSFGCTGPLASLGQGTQVTVSS
# B2: Nb32 (VHH)
# VHH: QVQLQESGGGLVQPGGSLRLSCAASGFTFSAYAMSWVRQAPGKGLEWVSTIDSGGGSTYYADSVKGRFTISRDNAKKTLYLHMNSLKPEDTAVYYCAKRGYSDYARHVWGQGTQVTVSS
# B3: Nb36 (VHH)
# VHH: QVQLQESGGGLVQPGGSLRLSCAASGFAFSFYWMNWVRQAPGKGLEWVSAINSGGGSTYYADSVKGRFTISRDNAKNTLYLQMNSLKPEDTAVYYCAKGIVQRGEYYGMDYWGKGTQVTVSS
# B4: Nb58 (VHH)
# VHH: QVQLQESGGGLVQPGGSLRLSCAASGRSISSIYAMGWYRQAPGKQRELVARLTSGGSSNYADSVKGRFTITRDNAQNTVYLQMNSLKPEDTAVYYCNAEPSRWWLDDDYWGQGTQVTVSS
# B5: Nb34 (VHH)
# VHH: QVQLQESGGGLVQPGGSLRLSCAASGFTFSNSPMNWVRQAPGKGLEWVSAINSGGGSTYYADSVKGRFTISRDNAKNTLYLQMNSLKPEDTAVYYCAKGGRTYYSGSYYSWGMDYWGKGTQVTVSS
# B6: Nb41 (VHH)
# VHH: QVQLQESGGGLVQAGGSLRLSCAASGRTFSSYAMGWFRQAPGKEREFIALISWIGGSTAYADSVKGRFTISRDNAKNTLYLQMNSLKPEDTAVYYCATDRIGRHRGPGTQVTVSS
# B7: Nb39 (VHH)
# VHH: QVQLQESGGGLVQPGGSLRLSCTASGSIFSGYAMGWYRQAPGKQRELVAGITSGGSTIYAGSVKGRFTISRDNAKNTVYLQMNSLKPEDTAVYYCKNGTYYSARDYWGQGTQVTVSS
# notes: nanobody from a llama immunized with recombinant Q586B2; A biotinylated Nb39 served as detecting agent in the sandwich ELISA; also called anti-Q586B2 Nb39; source: E. coli WK6, periplasmic extraction, purified (His-Trap IMAC, Superdex 75); not shown: HA, C-terminal, kept
# Target: T1, recombinant Q586B2 protein
# Test: not given
# Settings: not given
row,Binder,binding result
1,B1,binds
2,B2,binds
3,B3,binds
4,B4,binds
5,B5,binds
6,B6,binds

# Target: T2, native Q586B2 (Trypanosoma brucei brucei AnTat1.1E and …, UniProt Q586B2)
# Test: not given
# Settings: not given
row,Binder,binding result
1,B1,binds
2,B2,binds
3,B3,binds
4,B4,binds
5,B5,binds
6,B6,binds

# Target: T3, homologous protein in T. cruzi (Trypanosoma cruzi (assayed strain not …, UniProt Q4D6Q6))
# T3 construct: protein of T. cruzi homologous to Q586B2, detected by Nb39; also called Q4D6Q6; source: endogenous, T. cruzi parasites, fixed and permeabilized
# Test: flow cytometry on cells; 5 µg HA-tagged Nb on 100 µl of 10^7/ml purified, fixed and permeabilized parasites, on ice 30 min; detected with Alexa Fluor 488 labeled anti-HA IgG
# Settings: one partner purified
row,Binder,binding result
1,B7,binds

# Target: T2, native Q586B2
# Test: ELISA; sandwich ELISA: Nb39 coated at 5 µg/ml in PBS; culture medium of in vitro cultured parasites or serum of infected mice (day 6 p.i., diluted 1/2), 2 h at 37 °C; detected with biotinylated Nb39 and streptavidin-HRP
# Settings: one partner purified
row,Binder,binding result
1,B7,binds
